Test results published in PMC5563082 (2017).
Values belong to the binder of their own block, whether it stands above or below them.

Experiments:
Test in all cases: SPR
[1] = target: T1, human NL1(–A+B Asn300Gln)_(ECTO), immobilised for SPR (human, biotin on the Avitag (in vivo biotinylation by BirA))
T1 chain: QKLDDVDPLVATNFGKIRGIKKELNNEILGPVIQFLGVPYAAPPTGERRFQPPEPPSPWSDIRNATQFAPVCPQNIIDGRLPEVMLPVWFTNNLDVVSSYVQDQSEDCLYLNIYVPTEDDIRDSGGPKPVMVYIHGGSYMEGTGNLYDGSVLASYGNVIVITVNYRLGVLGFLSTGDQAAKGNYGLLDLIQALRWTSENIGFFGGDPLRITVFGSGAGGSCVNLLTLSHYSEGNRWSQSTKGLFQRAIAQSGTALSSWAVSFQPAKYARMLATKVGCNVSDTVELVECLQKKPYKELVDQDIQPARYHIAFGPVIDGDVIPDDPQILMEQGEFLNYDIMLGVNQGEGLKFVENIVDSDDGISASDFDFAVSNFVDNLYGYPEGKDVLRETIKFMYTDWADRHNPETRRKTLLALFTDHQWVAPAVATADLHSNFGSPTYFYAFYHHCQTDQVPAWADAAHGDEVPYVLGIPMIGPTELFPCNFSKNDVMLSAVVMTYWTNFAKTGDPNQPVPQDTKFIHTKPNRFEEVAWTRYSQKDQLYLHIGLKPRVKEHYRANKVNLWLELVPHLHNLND

[2] = target: T2, human NL1(+A1–B)_(ECTO), immobilised for SPR (human, biotin on the Avitag (in vivo biotinylation by BirA))
T2 chain: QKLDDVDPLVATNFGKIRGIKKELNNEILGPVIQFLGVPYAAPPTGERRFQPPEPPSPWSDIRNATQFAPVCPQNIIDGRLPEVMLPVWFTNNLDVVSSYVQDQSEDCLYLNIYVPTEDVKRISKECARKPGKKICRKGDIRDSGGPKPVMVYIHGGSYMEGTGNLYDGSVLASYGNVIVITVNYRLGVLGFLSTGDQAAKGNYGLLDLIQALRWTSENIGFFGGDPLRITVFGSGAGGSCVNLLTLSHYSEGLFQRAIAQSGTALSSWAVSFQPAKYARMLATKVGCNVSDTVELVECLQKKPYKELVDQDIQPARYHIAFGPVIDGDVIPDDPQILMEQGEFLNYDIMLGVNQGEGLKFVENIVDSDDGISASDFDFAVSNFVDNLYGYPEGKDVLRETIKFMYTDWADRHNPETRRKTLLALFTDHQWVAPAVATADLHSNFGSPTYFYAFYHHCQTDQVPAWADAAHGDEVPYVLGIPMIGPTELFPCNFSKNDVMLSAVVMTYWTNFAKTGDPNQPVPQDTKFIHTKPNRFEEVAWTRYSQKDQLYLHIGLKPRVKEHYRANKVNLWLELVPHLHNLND

[3] = target: T3, human NL1(+A1+A2–B)_(ECTO), immobilised for SPR (human, biotin on the Avitag (in vivo biotinylation by BirA))
T3 chain: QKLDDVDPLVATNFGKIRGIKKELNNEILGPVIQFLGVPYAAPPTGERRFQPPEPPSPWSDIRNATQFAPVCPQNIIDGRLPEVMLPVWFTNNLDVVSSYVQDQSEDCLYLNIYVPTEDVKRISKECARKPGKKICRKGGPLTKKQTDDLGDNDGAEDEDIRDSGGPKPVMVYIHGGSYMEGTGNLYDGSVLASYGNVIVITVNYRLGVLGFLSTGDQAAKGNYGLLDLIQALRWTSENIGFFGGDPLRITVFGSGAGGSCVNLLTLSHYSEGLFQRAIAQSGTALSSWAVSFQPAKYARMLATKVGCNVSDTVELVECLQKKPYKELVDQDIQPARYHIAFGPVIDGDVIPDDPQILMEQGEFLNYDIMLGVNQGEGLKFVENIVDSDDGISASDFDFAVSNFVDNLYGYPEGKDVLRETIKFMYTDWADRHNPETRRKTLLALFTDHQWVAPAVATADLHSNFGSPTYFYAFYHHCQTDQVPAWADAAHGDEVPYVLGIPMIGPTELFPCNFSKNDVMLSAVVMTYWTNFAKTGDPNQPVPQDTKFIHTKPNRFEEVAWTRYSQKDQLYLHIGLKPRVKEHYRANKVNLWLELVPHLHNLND

[4] = target: T4, human NL1(+A2–B)_(ECTO), immobilised for SPR (human, biotin on the Avitag (in vivo biotinylation by BirA))
T4 chain: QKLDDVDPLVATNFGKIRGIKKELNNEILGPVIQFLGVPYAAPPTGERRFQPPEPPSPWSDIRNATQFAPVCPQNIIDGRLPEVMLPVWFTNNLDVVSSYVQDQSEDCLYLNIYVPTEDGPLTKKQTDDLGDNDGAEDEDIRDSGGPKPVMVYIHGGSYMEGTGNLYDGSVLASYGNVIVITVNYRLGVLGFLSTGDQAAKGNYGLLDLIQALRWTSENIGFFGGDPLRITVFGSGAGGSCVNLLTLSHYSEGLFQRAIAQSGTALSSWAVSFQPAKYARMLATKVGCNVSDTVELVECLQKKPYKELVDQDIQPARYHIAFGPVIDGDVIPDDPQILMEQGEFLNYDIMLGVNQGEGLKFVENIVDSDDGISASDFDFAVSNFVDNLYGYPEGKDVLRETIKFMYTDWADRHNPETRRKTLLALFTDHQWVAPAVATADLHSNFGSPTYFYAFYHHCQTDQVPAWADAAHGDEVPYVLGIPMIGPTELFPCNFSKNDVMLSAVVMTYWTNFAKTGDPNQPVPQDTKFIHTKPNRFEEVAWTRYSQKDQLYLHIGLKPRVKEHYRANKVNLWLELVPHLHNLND

Kd [1]: 4030 nM
Kd [2]: 1200 nM
Kd [3]: 1410 nM
Kd [4]: 1460 nM
B1: human MDGA2 extracellular domain (MDGA2_(ECTO); Gln21-Lys927) (domain or fragment)
chain: QGVYAPPTVRIVHSGLACNIEEERYSERVYTIREGETLELTCLVTGHPRPQIRWTKTAGSASDRFQDSSVFNETLRITNIQRHQGGRYYCKAENGLGSPAIKSIRVDVYYLDDPVVTVHQSIGEAKEQFYYERTVFLRCVANSNPPVRYSWRRGQEVLLQGSDKGVEIYEPFFTQGETKILKLKNLRPQDYANYSCIASVRNVCNIPDKMVSFRLSNKTASPSIKLLVDDPIVVNPGEAITLVCVTTGGEPAPSLTWVRSFGTLPEKTVLNGGTLTIPAITSDDAGTYSCIANNNVGNPAKKSTNIIVRALKKGRFWITPDPYHKDDNIQIGREVKISCQVEAVPSEELTFSWFKNGRPLRSSERMVITQTDPDVSPGTTNLDIIDLKFTDFGTYTCVASLKGGGISDISIDVNISSSTVPPNLTVPQEKSPLVTREGDTIELQCQVTGKPKPIILWSRADKEVAMPDGSMQMESYDGTLRIVNVSREMSGMYRCQTSQYNGFNVKPREALVQLIVQYPPAVEPAFLEIRQGQDRSVTMSCRVLRAYPIRVLTYEWRLGNKLLRTGQFDSQEYTEYAVKSLSNENYGVYNCSIINEAGAGRCSFLVTGKAYAPEFYYDTYNPVWQNRHRVYSYSLQWTQMNPDAVDRIVAYRLGIRQAGQQRWWEQEIKINGNIQKGELITYNLTELIKPEAYEVRLTPLTKFGEGDSTIRVIKYSAPVNPHLREFHCGFEDGNICLFTQDDTDNFDWTKQSTATRNTKYTPNTGPNADRSGSKEGFYMYIETSRPRLEGEKARLLSPVFSIAPKNPYGPTNTAYCFSFFYHMYGQHIGVLNVYLRLKGQTTIENPLWSSSGNKGQRWNEAHVNIYPITSFQLIFEGIRGPGIEGDIAIDDVSIAEGECAKQDLATK

Kd [1]: 1090 nM
Kd [2]: 766 nM
Kd [3]: 784 nM
Kd [4]: 795 nM
B2: human β-neurexin-1 LNS6 domain lacking SS4 (β-NRX1_(LNS6)(–4); His85-Val265) (domain or fragment)
chain: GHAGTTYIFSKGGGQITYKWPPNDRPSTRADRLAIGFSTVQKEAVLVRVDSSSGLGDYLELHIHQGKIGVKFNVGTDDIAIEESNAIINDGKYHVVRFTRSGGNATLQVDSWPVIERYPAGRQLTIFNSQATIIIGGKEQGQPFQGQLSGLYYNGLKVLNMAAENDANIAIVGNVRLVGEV

Kd [1]: 4400 nM
Kd [2]: 2820 nM
Kd [3]: 2710 nM
Kd [4]: 2750 nM
B3: human β-neurexin-1 LNS6 domain with SS4 (β-NRX1_(LNS6)(+4)) (domain or fragment)
chain: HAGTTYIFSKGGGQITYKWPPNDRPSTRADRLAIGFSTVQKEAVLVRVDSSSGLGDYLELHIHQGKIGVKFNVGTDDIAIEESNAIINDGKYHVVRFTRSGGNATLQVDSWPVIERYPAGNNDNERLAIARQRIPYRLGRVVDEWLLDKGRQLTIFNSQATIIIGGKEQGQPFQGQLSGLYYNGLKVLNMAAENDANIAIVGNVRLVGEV

Kd [1]: 7220 nM
Kd [2]: 2080 nM
Kd [3]: 3050 nM
Kd [4]: 3210 nM
B4: human MDGA1 extracellular domain (MDGA1_(ECTO); Gln19-Lys925) (domain or fragment)
chain: QGVYAPAQAQIVHAGQACVVKEDNISERVYTIREGDTLMLQCLVTGHPRPQVRWTKTAGSASDKFQETSVFNETLRIERIARTQGGRYYCKAENGVGVPAIKSIRVDVQYLDEPMLTVHQTVSDVRGNFYQEKTVFLRCTVNSNPPARFIWKRGSDTLSHSQDNGVDIYEPLYTQGETKVLKLKNLRPQDYASYTCQVSVRNVCGIPDKAITFRLTNTTAPPALKLSVNETLVVNPGENVTVQCLLTGGDPLPQLQWSHGPGPLPLGALAQGGTLSIPSVQARDSGYYNCTATNNVGNPAKKTVNLLVRSMKNATFQITPDVIKESENIQLGQDLKLSCHVDAVPQEKVTYQWFKNGKPARMSKRLLVTRNDPELPAVTSSLELIDLHFSDYGTYLCMASFPGAPVPDLSVEVNISSETVPPTISVPKGRAVVTVREGSPAELQCEVRGKPRPPVLWSRVDKEAALLPSGLPLEETPDGKLRLERVSRDMSGTYRCQTARYNGFNVRPREAQVQLNVQFPPEVEPSSQDVRQALGRPVLLRCSLLRGSPQRIASAVWRFKGQLLPPPPVVPAAAEAPDHAELRLDAVTRDSSGSYECSVSNDVGSAACLFQVSAKAYSPEFYFDTPNPTRSHKLSKNYSYVLQWTQREPDAVDPVLNYRLSIRQLNQHNAVVKAIPVRRVEKGQLLEYILTDLRVPHSYEVRLTPYTTFGAGDMASRIIHYTEPINSPNLSDNTCHFEDEKICGYTQDLTDNFDWTRQNALTQNPKRSPNTGPPTDISGTPEGYYMFIETSRPRELGDRARLVSPLYNASAKFYCVSFFYHMYGKHIGSLNLLVRSRNKGALDTHAWSLSGNKGNVWQQAHVPISPSGPFQIIFEGVRGPGYLGDIAIDDVTLKKGECPRKQTDPNK
